Data: PMC9780815

Target: GFP-BMB1 (Hibiscus green spot virus)
Experiment: FRET or BRET

In the case of BMB2-mRFP (natural protein), the FRET efficiency is reported as 36% and the reduction of the GFP excited-state lifetime (FLIM) against the controls is reported as 0.9 ns.
